Laboratory results as given in patent US20190153061A1.
Blank lines part the entries; values can stand above or below the binder they belong to.

Molecular target: B-cell maturation antigen (BCMA) expressed on cells (human), Q02223
Assay: cell-based or functional assay

B-cell maturation antigen (BCMA) expressed on cells (human), Q02223, sequence (Q02223 whole entry): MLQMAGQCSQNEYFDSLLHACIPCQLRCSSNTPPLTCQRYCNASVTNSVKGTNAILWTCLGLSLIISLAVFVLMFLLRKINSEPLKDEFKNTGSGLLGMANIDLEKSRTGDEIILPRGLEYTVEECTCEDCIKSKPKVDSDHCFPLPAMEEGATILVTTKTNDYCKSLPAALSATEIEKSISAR

JNL binding assay, ratio to K562; K562-BCMA: 3.15
JNL binding assay, ratio to K562; NCI-H929: 2.27
JNL binding assay, ratio to K562; RPMI 8226: 3.54
Proliferation, CD3 ratio to no target; K562-BCMA: 5.52
Proliferation, CD3 ratio to no target; KMS11-luc: 5.41
Proliferation, CD3 ratio to no target; NCI-H929: 6.52
Proliferation, CD3 ratio to no target; RPMI 8226: 5.83
Proliferation, CD4 ratio to no target; K562-BCMA: 8.5
Proliferation, CD4 ratio to no target; KMS11-luc: 5.54
Proliferation, CD4 ratio to no target; NCI-H929: 8.98
Proliferation, CD4 ratio to no target; RPMI 8226: 8.5
Proliferation, CD8 ratio to no target; K562-BCMA: 3.06
Proliferation, CD8 ratio to no target; KMS11-luc: 5.2
Proliferation, CD8 ratio to no target; NCI-H929: 4.31
Proliferation, CD8 ratio to no target; RPMI 8226: 3.49
B1: BCMA-4NP tool CAR (126021) (protein, not shown: a dimerising Fc or GST)
chain: QVQLVQSGAEVKKPGSSVKVSCKASGGTFSNYWMHWVRQAPGQGLEWMGATYRGHSDTYYNQKFKGRVTITADKSTSTAYMELSSLRSEDTAVYYCARGAIYNGYDVLDNWGQGTLVTVSSGGGGSGGGGSGGGGSGGGGSDIQMTQSPSSLSASVGDRVTITCSASQDISNYLNWYQQKPGKAPKLLIYYTSNLHSGVPSRFSGSGSGTDFTLTISSLQPEDFATYYCQQYRKLPWTFGQGTKLEIKR
Cell killing EC50; KMS11-luc: 0.12 not printed

JNL binding assay, ratio to K562; K562-BCMA: 3.17
JNL binding assay, ratio to K562; NCI-H929: 2.67
JNL binding assay, ratio to K562; RPMI 8226: 3.87
Proliferation, CD3 ratio to no target; K562-BCMA: 2.55
Proliferation, CD3 ratio to no target; KMS11-luc: 2.46
Proliferation, CD3 ratio to no target; NCI-H929: 2.17
Proliferation, CD3 ratio to no target; RPMI 8226: 2.56
Proliferation, CD4 ratio to no target; K562-BCMA: 3.59
Proliferation, CD4 ratio to no target; KMS11-luc: 3.11
Proliferation, CD4 ratio to no target; NCI-H929: 2.98
Proliferation, CD4 ratio to no target; RPMI 8226: 3.33
Proliferation, CD8 ratio to no target; K562-BCMA: 1.59
Proliferation, CD8 ratio to no target; KMS11-luc: 1.83
Proliferation, CD8 ratio to no target; NCI-H929: 1.41
Proliferation, CD8 ratio to no target; RPMI 8226: 1.81
B2: BCMA-8 CAR (139107) (protein)
chain: EVQLVETGGGVVQPGGSLRLSCAVSGFALSNHGMSWVRRAPGKGLEWVSGIVYSGSTYYAASVKGRFTISRDNSRNTLYLQMNSLRPEDTAIYYCSAHGGESDVWGQGTTVTVSSASGGGGSGGRASGGGGSEIVLTQSPGTLSLSPGERATLSCRASQSVGSTNLAWYQQKPGQAPRLLIYDASNRATGIPDRFSGGGSGTDFTLTISRLEPEDFAVYYCQQYGSSPPWTFGQGTKVEIKTTTPAPRPPTPAPTIASQPLSLRPEACRPAAGGAVHTRGLDFACDIYIWAPLAGTCGVLLLSLVITLYCKRGRKKLLYIFKQPFMRPVQTTQEEDGCSCRFPEEEEGGCELRVKFSRSADAPAYKQGQNQLYNELNLGRREEYDVLDKRRGRDPEMGGKPRRKNPQEGLYNELQKDKMAEAYSEIGMKGERRRGKGHDGLYQGLSTATKDTYDALHMQALPPR
Cell killing EC50; KMS11-luc: 0.14 not printed

JNL binding assay, ratio to K562; K562-BCMA: 1.59
JNL binding assay, ratio to K562; NCI-H929: 1.99
JNL binding assay, ratio to K562; RPMI 8226: 1.54
Proliferation, CD3 ratio to no target; K562-BCMA: 1.51
Proliferation, CD3 ratio to no target; KMS11-luc: 1.66
Proliferation, CD3 ratio to no target; NCI-H929: 4.63
Proliferation, CD3 ratio to no target; RPMI 8226: 2.5
Proliferation, CD4 ratio to no target; K562-BCMA: 1.59
Proliferation, CD4 ratio to no target; KMS11-luc: 1.49
Proliferation, CD4 ratio to no target; NCI-H929: 4.45
Proliferation, CD4 ratio to no target; RPMI 8226: 2.24
Proliferation, CD8 ratio to no target; K562-BCMA: 1.43
Proliferation, CD8 ratio to no target; KMS11-luc: 1.83
Proliferation, CD8 ratio to no target; NCI-H929: 4.79
Proliferation, CD8 ratio to no target; RPMI 8226: 2.76
B3: BCMA-9 CAR (139108) (protein)
chain: QVQLVESGGGLVKPGGSLRLSCAASGFTFSDYYMSWIRQAPGKGLEWVSYISSSGSTIYYADSVKGRFTISRDNAKNSLYLQMNSLRAEDTAVYYCARESGDGMDVWGQGTTVTVSSASGGGGSGGRASGGGGSDIQMTQSPSSLSASVGDRVTITCRASQSISSYLNWYQQKPGKAPKLLIYAASSLQSGVPSRFSGSGSGTDFTLTISSLQPEDFATYYCQQSYTLAFGQGTKVDIKTTTPAPRPPTPAPTIASQPLSLRPEACRPAAGGAVHTRGLDFACDIYIWAPLAGTCGVLLLSLVITLYCKRGRKKLLYIFKQPFMRPVQTTQEEDGCSCRFPEEEEGGCELRVKFSRSADAPAYKQGQNQLYNELNLGRREEYDVLDKRRGRDPEMGGKPRRKNPQEGLYNELQKDKMAEAYSEIGMKGERRRGKGHDGLYQGLSTATKDTYDALHMQALPPR
Cell killing EC50; KMS11-luc: 0.68 not printed

JNL binding assay, ratio to K562; K562-BCMA: 2.81
JNL binding assay, ratio to K562; NCI-H929: 2.65
JNL binding assay, ratio to K562; RPMI 8226: 3.31
Proliferation, CD3 ratio to no target; K562-BCMA: 4.12
Proliferation, CD3 ratio to no target; KMS11-luc: 3.42
Proliferation, CD3 ratio to no target; NCI-H929: 3.86
Proliferation, CD3 ratio to no target; RPMI 8226: 3.93
Proliferation, CD4 ratio to no target; K562-BCMA: 5.73
Proliferation, CD4 ratio to no target; KMS11-luc: 3.97
Proliferation, CD4 ratio to no target; NCI-H929: 5.07
Proliferation, CD4 ratio to no target; RPMI 8226: 4.84
Proliferation, CD8 ratio to no target; K562-BCMA: 2.65
Proliferation, CD8 ratio to no target; KMS11-luc: 2.83
Proliferation, CD8 ratio to no target; NCI-H929: 2.73
Proliferation, CD8 ratio to no target; RPMI 8226: 3.03
B4: BCMA-14 CAR (139113) (protein)
chain: EVQLVETGGGLVQPGGSLRLSCAVSGFALSNHGMSWVRRAPGKGLEWVSGIVYSGSTYYAASVKGRFTISRDNSRNTLYLQMNSLRPEDTAIYYCSAHGGESDVWGQGTTVTVSSASGGGGSGGRASGGGGSETTLTQSPATLSVSPGERATLSCRASQSVGSNLAWYQQKPGQGPRLLIYGASTRATGIPARFSGSGSGTEFTLTISSLQPEDFAVYYCQQYNDWLPVTFGQGTKVEIKTTTPAPRPPTPAPTIASQPLSLRPEACRPAAGGAVHTRGLDFACDIYIWAPLAGTCGVLLLSLVITLYCKRGRKKLLYIFKQPFMRPVQTTQEEDGCSCRFPEEEEGGCELRVKFSRSADAPAYKQGQNQLYNELNLGRREEYDVLDKRRGRDPEMGGKPRRKNPQEGLYNELQKDKMAEAYSEIGMKGERRRGKGHDGLYQGLSTATKDTYDALHMQALPPR
Cell killing EC50; KMS11-luc: 0.12 not printed
